From patent US12138315 (Daiichi Sankyo, dated 2024)

B1: hmAb-H11L11-DXd (antibody, V domains shown)
VH: EVQLVQSGAEVKKPGASVKVSCKASGYSFTDYNMYWVRQAPGQSLEWMGYIDPYNGDTTYNQKFQGRVTITADTSTSTAYMELSSLRSEDTAVYYCARSPYGHYAMDYWGQGTLVTVSS
VL: DIQMTQSPSSLSASVGDRVTITCKASQDVSTAVDWYQQKPGKAPKLLINWASTRHTGVPSRFSGSGSGTDFTLTISSLQPEDFATYYCRQHYSTPFTFGQGTKVEIKR
modifications: drug linker on sulfhydryl groups of reduced interchain disulfide cysteines; positions not given; drug linker (maleimidocaproyl-GGFG-DXd, exatecan derivative) on sulfhydryl groups of reduced interchain disulfide cysteines by thioether bond; average number of conjugated drug molecules per antibody 7.4 to 7.7 (common procedure F); positions not given
notes: also called hmAb-H11L11-ADC
B2: hmAb-H11L11 (antibody, human IgG1, kappa, V domains shown)
VH: EVQLVQSGAEVKKPGASVKVSCKASGYSFTDYNMYWVRQAPGQSLEWMGYIDPYNGDTTYNQKFQGRVTITADTSTSTAYMELSSLRSEDTAVYYCARSPYGHYAMDYWGQGTLVTVSS
VL: DIQMTQSPSSLSASVGDRVTITCKASQDVSTAVDWYQQKPGKAPKLLINWASTRHTGVPSRFSGSGSGTDFTLTISSLQPEDFATYYCRQHYSTPFTFGQGTKVEIKR
notes: Unconjugated humanized IgG1 kappa antibody derived from mouse HH1; also called anti-CD37 humanized antibody having hmAb-H11 as a heavy chain and hmAb-L11 as a light chain
B3: hmAb-H11aL11 (antibody, human IgG1, kappa, V domains shown)
VH: EVQLVQSGAEVKKPGASVKVSCKASGYSFTDYNMYWVRQAPGQSLEWMGYIDPYNGDTTYNQKFQGRVTITADKSKSTAYMELSSLRSEDTAVYYCARSPYGHYAMDYWGQGTLVTVSS
VL: DIQMTQSPSSLSASVGDRVTITCKASQDVSTAVDWYQQKPGKAPKLLINWASTRHTGVPSRFSGSGSGTDFTLTISSLQPEDFATYYCRQHYSTPFTFGQGTKVEIKR
notes: Unconjugated humanized IgG1 kappa antibody; also called anti-CD37 humanized antibody having hmAb-H11a as a heavy chain and hmAb-L11 as a light chain
B4: hmAb-H551L11-DXd (antibody, human IgG1, kappa, V domains shown)
VH: EVQLVQSGAEVKKPGASVKVSCKASGYSFTDYNMYWVRQAPGQSLEWMGYIDPYNGDTTYNQKFQGRVTMTRDTSSSTAYMELSRLRSDDTAVYYCARSPYGHYAMDYWGQGTTVTVSS
VL: DIQMTQSPSSLSASVGDRVTITCKASQDVSTAVDWYQQKPGKAPKLLINWASTRHTGVPSRFSGSGSGTDFTLTISSLQPEDFATYYCRQHYSTPFTFGQGTKVEIKR
modifications: drug linker on sulfhydryl groups of reduced interchain disulfide cysteines; positions not given; drug linker (maleimidocaproyl-GGFG-DXd, exatecan derivative) on sulfhydryl groups of reduced interchain disulfide cysteines by thioether bond; average number of conjugated drug molecules per antibody 7.8 (common procedure F); positions not given
notes: also called hmAb-H551L11-ADC
B5: hmAb-H541L11 (antibody, human IgG1, kappa, V domains shown)
VH: EVQLVQSGAEVKKPGASVKVSCKASGYSFTDYNMYWVRQAPGQSLEWMGYIDPYNGDTTYNQKFQGRVTMTRDTSISTAYMELSRLRSDDTAVYYCARSPYGHYAMDYWGQGTTVTVSS
VL: DIQMTQSPSSLSASVGDRVTITCKASQDVSTAVDWYQQKPGKAPKLLINWASTRHTGVPSRFSGSGSGTDFTLTISSLQPEDFATYYCRQHYSTPFTFGQGTKVEIKR
notes: Unconjugated humanized IgG1 kappa antibody; also called anti-CD37 humanized antibody having hmAb-H541 as a heavy chain and hmAb-L11 as a light chain
B6: hmAb-H551L11 (antibody, human IgG1, kappa, V domains shown)
VH: EVQLVQSGAEVKKPGASVKVSCKASGYSFTDYNMYWVRQAPGQSLEWMGYIDPYNGDTTYNQKFQGRVTMTRDTSSSTAYMELSRLRSDDTAVYYCARSPYGHYAMDYWGQGTTVTVSS
VL: DIQMTQSPSSLSASVGDRVTITCKASQDVSTAVDWYQQKPGKAPKLLINWASTRHTGVPSRFSGSGSGTDFTLTISSLQPEDFATYYCRQHYSTPFTFGQGTKVEIKR
notes: Unconjugated humanized IgG1 kappa antibody; also called anti-CD37 humanized antibody having hmAb-H551 as a heavy chain and hmAb-L11 as a light chain
B7: hmAb-H11aL11-DXd (antibody, human IgG1, kappa, V domains shown)
VH: EVQLVQSGAEVKKPGASVKVSCKASGYSFTDYNMYWVRQAPGQSLEWMGYIDPYNGDTTYNQKFQGRVTITADKSKSTAYMELSSLRSEDTAVYYCARSPYGHYAMDYWGQGTLVTVSS
VL: DIQMTQSPSSLSASVGDRVTITCKASQDVSTAVDWYQQKPGKAPKLLINWASTRHTGVPSRFSGSGSGTDFTLTISSLQPEDFATYYCRQHYSTPFTFGQGTKVEIKR
modifications: drug linker on sulfhydryl groups of reduced interchain disulfide cysteines; positions not given; drug linker (maleimidocaproyl-GGFG-DXd, exatecan derivative) on sulfhydryl groups of reduced interchain disulfide cysteines by thioether bond; average number of conjugated drug molecules per antibody 7.6 (common procedure F); positions not given
notes: also called hmAb-H11aL11-ADC
B8: hmAb-H541L11-DXd (antibody, human IgG1, kappa, V domains shown)
VH: EVQLVQSGAEVKKPGASVKVSCKASGYSFTDYNMYWVRQAPGQSLEWMGYIDPYNGDTTYNQKFQGRVTMTRDTSISTAYMELSRLRSDDTAVYYCARSPYGHYAMDYWGQGTTVTVSS
VL: DIQMTQSPSSLSASVGDRVTITCKASQDVSTAVDWYQQKPGKAPKLLINWASTRHTGVPSRFSGSGSGTDFTLTISSLQPEDFATYYCRQHYSTPFTFGQGTKVEIKR
modifications: drug linker on sulfhydryl groups of reduced interchain disulfide cysteines; positions not given; drug linker (maleimidocaproyl-GGFG-DXd, exatecan derivative) on sulfhydryl groups of reduced interchain disulfide cysteines by thioether bond; average number of conjugated drug molecules per antibody 7.8 (common procedure F); positions not given
notes: also called hmAb-H541L11-ADC

Target: T1, human CD37 protein (human, UniProt P11049 1-281)
T1 construct: Four-pass transmembrane tetraspanin
T1 sequence: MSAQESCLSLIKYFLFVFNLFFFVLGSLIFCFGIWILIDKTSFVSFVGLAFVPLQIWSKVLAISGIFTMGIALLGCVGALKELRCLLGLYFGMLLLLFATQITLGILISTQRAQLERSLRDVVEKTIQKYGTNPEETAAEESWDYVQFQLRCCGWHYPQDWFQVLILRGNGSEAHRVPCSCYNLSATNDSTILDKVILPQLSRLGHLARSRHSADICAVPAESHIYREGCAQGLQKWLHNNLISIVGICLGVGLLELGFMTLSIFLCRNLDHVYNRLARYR
Experiment: flow cytometry on OCI-LY7 cells, FITC anti-human IgG Fc secondary
Experimental: 4)-1 Evaluation of Binding Activity of Humanized Anti-CD37 Antibody-Drug Conjugate The binding activity of the four antibody-drug conjugates (clone names: hmAb-H11L11-DXd, hmAb-H541L11-DXd, hmAb-H551L11-DXd, and hmAb-H11aL11-DXd) produced in Example 2 was evaluated by flow cytometry. CD37-positive human diffuse large B-cell lymphoma cell line OCI-LY7 (DSMZ) cultured in IMDM medium supplemented with 20% FBS under conditions of 37° C. and 5% CO_2 were recovered and centrifuged. After removal of the supernatant, the cells were suspended by the addition of each of the four antibody-drug conjugates or a negative control antibody-drug conjugate (hmAb-IgG1-DXd) produced using human IgG at each concentration. The cells were left standing at 4° C. for 1 hour. The cells were washed twice with PBS supplemented with 5% FBS, and then suspended by the addition of FLUORESCEIN (FITC)-AffiniPure F(ab')2 Fragment Goat Anti-Human IgG, Fcγ Fragment Specific (Jackson ImmunoResearch Laboratories, Inc.) that had been 100-fold diluted with PBS supplemented with 5% FBS. The cells were left standing at 4° C. for 30 minutes. The cells were washed twice with PBS supplemented with 5% FBS, followed by detection using a flow cytometer (BD LSRFortessa TM X-20, BD Biosciences). The data was analyzed using FlowJo (Tree Star, Inc.). In FIG. 6, the abscissa depicts antibody concentration (μg/ml), and the ordinate depicts the amount of the antibody bound by MFI (mean fluorescence intensity).

Binding result, binds:
B1
B2
B3
B4
B5
B6
B7
B8
